Patent publication US20240400703A1 (Genmab, published 2024)

T1: recombinant human OX40 fused to a His-tag (Acro Biosystems, cat. no. OX0-H5224) (human, UniProt P43489 29-214)
T1 construct: bought protein; also called sOX40; soluble OX40; not shown: His-tag
T1 sequence: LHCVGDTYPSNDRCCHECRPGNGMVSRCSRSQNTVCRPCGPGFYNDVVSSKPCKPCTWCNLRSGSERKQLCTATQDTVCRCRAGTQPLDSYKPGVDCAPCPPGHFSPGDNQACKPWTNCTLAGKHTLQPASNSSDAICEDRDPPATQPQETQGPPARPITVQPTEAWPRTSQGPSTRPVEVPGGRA

T2: recombinant cynomolgus monkey OX40 (Acro Biosystems, cat. no. OX0-C5220) (cynomolgus monkey (Macaca fascicularis), UniProt P43489 29-214 (human entry))
T2 construct: bought protein; also called Cyno OX40
T2 chain: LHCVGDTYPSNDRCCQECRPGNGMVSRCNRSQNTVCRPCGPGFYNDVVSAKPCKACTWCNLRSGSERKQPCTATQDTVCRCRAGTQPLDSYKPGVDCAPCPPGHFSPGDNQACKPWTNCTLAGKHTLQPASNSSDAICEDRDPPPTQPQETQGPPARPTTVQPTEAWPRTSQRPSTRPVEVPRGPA

T3: human OX40 expressed on cells (human, UniProt P43489 29-277)
T3 construct: also called CD134; TNFRSF4
T3 sequence: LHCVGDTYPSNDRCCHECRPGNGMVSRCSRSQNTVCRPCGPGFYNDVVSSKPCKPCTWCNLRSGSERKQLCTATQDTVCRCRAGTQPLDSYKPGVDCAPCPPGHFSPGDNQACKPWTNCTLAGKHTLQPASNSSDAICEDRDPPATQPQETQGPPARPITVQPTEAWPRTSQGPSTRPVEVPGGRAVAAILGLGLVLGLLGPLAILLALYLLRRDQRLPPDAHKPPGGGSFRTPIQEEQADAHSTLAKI


Columns and labels:
[1] = target: T1, recombinant human OX40 fused to a …; assay: BLI, Ab on AHC sensor, OX40 analyte
Experimental: (§1) Experiments were carried out while shaking at 1,000 RPM at 30° C. […] Next, AHC sensors were loaded with antibody (1 μg/mL in Sample Diluent) for 600 s. After a baseline measurement in sample diluent (100 s), the association (200 s) and dissociation (1,000 s) of human OX40 (Acro Biosystems, cat. no. OX0-H5224), and cynomolgus monkey OX40 (Acro Biosystems, cat. no. OX0-C5220) was determined using a concentration range of 0.78 to 800 nM with 2-fold dilution steps.
(§2) The theoretical molecular masses of the antigens based on the amino acid sequences were used for calculations. For each antibody, a reference sensor was used which was incubated with Sample Diluent instead of antigen. AHC sensors were regenerated by exposure to 10 mM glycine buffer pH 1.7 for 5 s, followed by neutralization in Sample Diluent for 5 s; both steps were repeated twice. Subsequently sensors were loaded again with antibody for the next cycle of kinetic measurements.
(§3) Data were acquired using Data Acquisition Software v12.0 (Sartorius) and analyzed with Data Analysis Software v12.0 (Sartorius). Data traces were corrected per antibody by subtraction of the reference sensor. The Y-axis was aligned to the last 10 s of the baseline and Interstep Correction alignment to dissociation as well as Savitzky-Golay filtering were applied. Data traces with a response <0.05 nm were excluded from analysis. […] The data was fitted with the 1:1 model using a window of interest for the association of 200 s and dissociation times set at 50 s, 200 s and 1,000 s. The dissociation time was chosen based upon R² value, visual inspection of the curve and at least 5% signal decay during the dissociation step.

[2] = target: T2, recombinant cynomolgus monkey OX40 …; assay: BLI, Ab on AHC sensor, OX40 analyte
Experimental: as §1, §2, §3

[3] = target: T3, human OX40 expressed on cells; assay: flow cytometry, loss of sOX40L (2 µg/mL) binding to activated human CD4+ T cells; competitor sOX40L; unit taken from the upper half of the table
Experimental: Stimulated PBMCs were pelleted, resuspended in FACS buffer 2 (DPBS with 2% heat-inactivated FBS [Sigma-Aldrich, cat. no. F7524] and 2 mM EDTA [Sigma-Aldrich, cat. no. 03690]), and seeded (100,000 cells/well) in round-bottom 96-well plates (VWR International GmbH, cat. no. 734-197). […] Next, cells were washed twice in FACS buffer, and incubated with 30 μL of the antibody panel described in Table 11 diluted in FACS buffer 2 containing 1:1,500 Fixable Viability Stain eFluor 780 at 4° C. for 20 min, protected from light. The cells were subsequently washed twice with 120-150 μL FACS buffer 2 and measured on a BD FACSCelesta flow cytometer using a BD High Throughput sampler and subsequent analysis was done using FlowJo software.

[4] = target: T3, human OX40 expressed on cells; assay: flow cytometry, activated human CD8+ T cells, mean of 3 donors; CD8+ T cells
Experimental: (§4) Healthy human donor PBMCs were purified essentially as described in Example 7. The cell concentration was adjusted to 2×10⁶ cells per mL (final concentration) in assay medium and plated in 6-well plates (Greiner, cat. no. 657160). PBMCs were stimulated with 0.3 μg/mL anti-CD3 ([…] Technologies, cat. no. 60011) and 0.5 μg/mL anti-CD28 antibodies (BioLegend, cat. no. 302934) and cultured for two days at 37° C., 5% CO₂. Next, the PBMCs were harvested, counted and brought to a concentration of 2×10⁶ cells per mL in FACS buffer 1 (DPBS with 2% heat-inactivated FBS and 2 mM ethylenediaminetetraacetic acid [EDTA]). […] After 60 min at RT, the cells were prepared for flow cytometric analyses. To this end, the cells were washed twice with 150 μL FACS buffer 1 and 30 μL/well cell-surface antibody mix (Table 9) in FACS buffer 1 containing antibody against human Fcγ antibody (Table 9) and fixable viability dye eFluor780 (1:1,500) was added. The staining procedures were carried out at 4° C. for 15-20 min protected from light. Stained cells were washed twice with 120-150 μL FACS buffer 1 (5 min, 460×g, RT) and resuspended in 60-100 μL FACS buffer 1 for direct flow cytometric analyses. Flow cytometric data were acquired on a FACSymphony A3 and analyzed with FlowJo software.

[5] = target: T3, human OX40 expressed on cells; assay: flow cytometry, activated human CD8+ T cells, donor 3
Experimental: as §4

Binder	Kd [1] [nM]	koff [1] [s⁻¹]	kon [1] [M⁻¹ s⁻¹]	Kd [2] [nM]	koff [2] [s⁻¹]	kon [2] [M⁻¹ s⁻¹]	IC50 [3] [nM]	EC50 [4] [nM]	EC50 [5] [mg/L]
IgG1-CD134-003-HC6LC2-P329R-E345R (antibody, humanized; human IgG1 with P329R and E345R (Eu numbering), kappa; also called IgG1-CD134-003-HC6LC2-RR) heavy: not shown light: AAVLTQSPSSLSASVGDRVTITCQSSQIVVNNNFLSWYQQKPGKAPKLLIYDASNLASGVPDRFSGSGSGTDFTFTISSLQPEDIATYYCLGGYDDDAENAFGGGTKVEIKRTVAAPSVFIFPPSDEQLKSGTASVVCLLNNFYPREAKVQWKVDNALQSGNSQESVTEQDSKDSTYSLSSTLTLSKADYEKHKVYACEVTHQGLSSPVTKSFNRGEC	3.4	0.00086	250000	27	0.0029	110000	0.579	0.159	0.0217
IgG1-CD134-003 (antibody, rabbit-human chimeric IgG1, wild-type Fc; also called parental chimeric antibody) heavy: not shown light: AAVLTQTPSPVSAAVGGTVTIKCQSSQIVVNNNFLSWYQQKPGQPPKLLIYDASNLASGVPDRFSGSGSGTQFTLTISGVQSDDAATYYCLGGYDDDAENAFGGGTEVVVQRTVAAPSVFIFPPSDEQLKSGTASVVCLLNNFYPREAKVQWKVDNALQSGNSQESVTEQDSKDSTYSLSSTLTLSKADYEKHKVYACEVTHQGLSSPVTKSFNRGEC	1.1	0.00035	330000	3.5	0.00096	280000	–	–	–

Now from value to binder:

Kd [1] [nM]	koff [1] [s⁻¹]	kon [1] [M⁻¹ s⁻¹]	Kd [2] [nM]	koff [2] [s⁻¹]	kon [2] [M⁻¹ s⁻¹]	IC50 [3] [nM]	EC50 [4] [nM]	EC50 [5] [mg/L]	Binder
2	0.00075	380000	7.1	0.0018	260000	–	–	–	IgG1-CD134-007 (antibody, rabbit-human chimeric IgG1) heavy: not shown light: AQVLTQTPSPVSAAVGGTVTISCQSSESVWNNNWLAWYQQKPGQPPNLLIYEASTLASGVSSRFKGSGSGTQFTLTVSEVQSDDAATYYCQGGYYDSSPIWTFGGGTEVVVKRTVAAPSVFIFPPSDEQLKSGTASVVCLLNNFYPREAKVQWKVDNALQSGNSQESVTEQDSKDSTYSLSSTLTLSKADYEKHKVYACEVTHQGLSSPVTKSFNRGEC
11	0.0016	140000	–	–	–	–	–	–	IgG1-CD134-012 (antibody, rabbit-human chimeric IgG1) heavy: not shown light: DIVMTQTPASVEAAVGGTVTIKCQASENIYSSLAWYQQKPGQPPKLLIYRTSTLASGVPSRFKGSGSGTQFTLTISDLESDDAATYYCQSYYHNSGGGYDYGFGGGTEVVAKRTVAAPSVFIFPPSDEQLKSGTASVVCLLNNFYPREAKVQWKVDNALQSGNSQESVTEQDSKDSTYSLSSTLTLSKADYEKHKVYACEVTHQGLSSPVTKSFNRGEC
